Data on three substances can be found in US20250333531A1.

For assay [1], the target named is CD20 (UniProt P11836). The assay is described as follows: flow cytometry on CLL patient sample CLL177, FITC-rituximab at 10 µg per 10^6 cells, median fluorescence intensity, background corrected. In general terms: A flow cytometer gives signals particle by particle.
The target of assay [2] is CD20 (UniProt P11836). The assay is described as follows: flow cytometry on CLL patient sample CLL187, FITC-rituximab at 10 µg per 10^6 cells, median fluorescence intensity, background corrected.
The target in assay [3] is CD20 (UniProt P11836). Put plainly: flow cytometry, FITC-labelled antibody on Daudi and SU-DHL-6 cells.
Assay [4] concerns the target human CD37 (human) (UniProt P11049). The assay is described as follows: flow cytometry on Ramos cells, isotype control, MFI normalised to chHH1-DOTA (blank supernatant 28.3%).
Assay [5] addresses biotinylated soluble human FcRn (human) (UniProt P55899). Put plainly: ELISA: IgG coated at 1000-0.45 ng/ml, biotinylated soluble human FcRn 250 ng/ml pre-complexed with AP-streptavidin, pH 7.4, absorbance 405 nm.
The target of assay [6] is biotinylated truncated soluble human FcγRI (human) (UniProt P12314). Put plainly: ELISA: IgG coated at 10000-4.5 ng/ml, biotinylated truncated soluble human FcγRI 250 ng/ml pre-complexed with AP-streptavidin, absorbance 405 nm. For orientation: An ELISA detects its analyte on a solid surface through an enzyme-linked reagent.
biotinylated truncated soluble human FcγRI (human), sequence (P12314 16-292): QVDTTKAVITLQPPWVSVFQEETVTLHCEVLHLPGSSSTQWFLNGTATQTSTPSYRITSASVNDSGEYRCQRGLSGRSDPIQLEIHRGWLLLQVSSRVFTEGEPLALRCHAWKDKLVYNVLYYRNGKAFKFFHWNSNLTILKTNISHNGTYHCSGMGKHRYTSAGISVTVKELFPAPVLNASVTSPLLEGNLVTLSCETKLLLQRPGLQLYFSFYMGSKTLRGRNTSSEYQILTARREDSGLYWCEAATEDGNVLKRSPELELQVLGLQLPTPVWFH
Assay [7] deals with biotinylated truncated soluble human FcγRIIb (human) (UniProt P31994). Put plainly: ELISA: IgG coated at 10000-4.5 ng/ml, biotinylated truncated soluble human FcγRIIb 250 ng/ml pre-complexed with AP-streptavidin, absorbance 405 nm.
biotinylated truncated soluble human FcγRIIb (human), sequence (P31994 43-217): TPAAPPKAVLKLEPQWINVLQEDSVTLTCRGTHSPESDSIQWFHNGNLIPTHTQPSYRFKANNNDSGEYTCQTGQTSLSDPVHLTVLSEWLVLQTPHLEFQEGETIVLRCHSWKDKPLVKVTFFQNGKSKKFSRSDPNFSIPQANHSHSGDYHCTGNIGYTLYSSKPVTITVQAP
Assay [8] concerns the target biotinylated truncated soluble human FcγRIIIa-V158 (human) (UniProt P08637). The assay is described as follows: ELISA: IgG coated at 10000-4.5 ng/ml, biotinylated truncated soluble human FcγRIIIa-V158 250 ng/ml pre-complexed with AP-streptavidin, absorbance 405 nm.
In assay [9] the target is biotinylated truncated soluble human FcγRIIa-H131 (human) (UniProt P12318). Put plainly: ELISA: IgG coated at 10000-4.5 ng/ml, biotinylated truncated soluble human FcγRIIa-H131 250 ng/ml pre-complexed with AP-streptavidin, absorbance 405 nm.
biotinylated truncated soluble human FcγRIIa-H131 (human), sequence (P12318 34-217): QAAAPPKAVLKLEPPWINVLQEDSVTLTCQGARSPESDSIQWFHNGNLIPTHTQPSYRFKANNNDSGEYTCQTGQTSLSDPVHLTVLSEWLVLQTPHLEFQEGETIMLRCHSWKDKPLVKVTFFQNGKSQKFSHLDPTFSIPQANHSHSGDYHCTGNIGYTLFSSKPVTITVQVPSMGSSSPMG
The target in assay [10] is FcγRIIIa-V158 on Promega Jurkat effector cells (UniProt P08637). Put plainly: cell-based or functional assay.
Assay [11] deals with biotinylated truncated soluble human FcγRIIa-R131 (human) (UniProt P12318). Put plainly: ELISA: IgG coated at 10000-4.5 ng/ml, biotinylated truncated soluble human FcγRIIa-R131 250 ng/ml pre-complexed with AP-streptavidin, absorbance 405 nm.
biotinylated truncated soluble human FcγRIIa-R131 (human), sequence (P12318 34-217 H167R): as the sequence (P12318 34-217) above, with H134R counted along it

CD20, sequence (P11836 whole entry): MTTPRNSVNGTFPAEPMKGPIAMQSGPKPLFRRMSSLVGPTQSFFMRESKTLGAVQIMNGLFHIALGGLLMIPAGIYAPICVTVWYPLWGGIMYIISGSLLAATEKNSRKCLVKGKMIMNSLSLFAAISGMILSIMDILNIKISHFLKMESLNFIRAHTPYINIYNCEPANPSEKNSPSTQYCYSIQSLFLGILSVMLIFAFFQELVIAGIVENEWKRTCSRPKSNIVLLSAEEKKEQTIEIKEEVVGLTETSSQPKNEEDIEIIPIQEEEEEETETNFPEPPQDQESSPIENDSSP
human CD37 (human), sequence (P11049 whole entry): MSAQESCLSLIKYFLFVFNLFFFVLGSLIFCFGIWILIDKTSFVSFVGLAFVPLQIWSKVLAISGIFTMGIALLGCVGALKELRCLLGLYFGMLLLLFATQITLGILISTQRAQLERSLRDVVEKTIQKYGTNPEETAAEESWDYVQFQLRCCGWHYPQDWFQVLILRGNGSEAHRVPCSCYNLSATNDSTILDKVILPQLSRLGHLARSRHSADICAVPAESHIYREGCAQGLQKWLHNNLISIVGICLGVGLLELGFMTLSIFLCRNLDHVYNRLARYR
biotinylated soluble human FcRn (human), sequence (P55899 24-297 limits assumed, chain 1 of 2): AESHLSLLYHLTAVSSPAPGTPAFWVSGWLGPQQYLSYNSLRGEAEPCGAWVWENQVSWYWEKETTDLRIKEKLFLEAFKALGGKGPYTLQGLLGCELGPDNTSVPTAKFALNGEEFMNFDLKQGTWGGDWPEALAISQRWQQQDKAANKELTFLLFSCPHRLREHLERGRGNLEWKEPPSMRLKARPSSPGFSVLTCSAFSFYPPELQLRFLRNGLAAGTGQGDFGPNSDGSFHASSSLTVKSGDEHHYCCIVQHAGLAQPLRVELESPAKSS
biotinylated soluble human FcRn (human), sequence (chain, as listed by the source limits assumed, chain 2 of 2): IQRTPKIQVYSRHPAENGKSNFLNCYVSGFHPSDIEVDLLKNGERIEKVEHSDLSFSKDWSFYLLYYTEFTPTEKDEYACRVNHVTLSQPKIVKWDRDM

With “Anti-CD20 (10F381 rituximab) FITC-conjugated rabbit/human chimeric Ab (antibody)”, the Avg. MFI (a.u.) in assay [1] was 52 a.u; in assay [2] it was 68 a.u. In assay [3], this substance yielded a saturation titer (µg per 10^6 cells) of 10.
In assay [4], isotype control antibody yielded a Normalized average binding (%) of 29.5%.
By EC50 (read off the curve) is commonly meant the concentration that produces a half-maximal response. High values mean lower potency in that assay, low ones higher potency in that assay. For the substance obinutuzumab (antibody), the EC50 (read off the curve) in [5] is 0.06 µg/mL; in [6], 0.6 µg/mL; in [7] it was 2 µg/mL; in assay [8], 1 µg/mL; in assay [9] it was 0.6 µg/mL; in assay [11], 2 µg/mL. Besides, the average potency of the ADCC response (Example 13) in assay [10] is 1.1 nM.
